Measurements: patent US20180057603A1

Target: erbB2 (p185erbB2/HER2/neu) on SK-BR-3 cells (human) (UniProt P04626)
Assay: cell-based or functional assay

foci less than 20 pixels in soft agar (SK-BR-3): 72%
Substance: anti-erbB2 mAb 4D5 (antibody)
